# Source: the DeepSol protein solubility set
# Assay: soluble on expression in E. coli; label from the status in PepcDB or PDB records
row,Sequence,soluble on expression in E. coli
1,MGSDKIHHHHHHNGDEKIDSGMVQQDGEVLQLNVRVGDFAINDVSSIRATDSGSTGTFENGDRIGIIVLDADNNVLSDNIPYRYDGNIWSFDSNNDEGKTTIYYDNKATVYLAYFPYSKEVDNVINIDDLKGKFLPQGDQRSKDAYRASDLLVWSDTSGRPLKKLDIVFEHAYSLLSLSPSIKCKINGRRDFTYVPSSISDVSFNVGTEPLFPYQMNDGSYQIIISPKRAKVRWLYEYNKEMYSGAMPDTDLSANTCYTFTPVLKDIGDYTLDKAQMGDFYCKDESNNGYLIPGDVTALSADMNCLGIVLKSGKDSEGEWVDYCKYKQKYGITEMHTVHGYVLALYDANGGNACTWGLWSLTDINRGEPSTGFYGYKNTQGIISFAENENRTLKNGFPPVYWVTDYEYSHPAPANSSGWFLPSLGQCWYWMYNKAYLLSAVNKATGDNDYGWKLGYWSSSEDDYDPFLNAYYADTYVGAMDWDYKNSKHCVRACLAF,not soluble
2,MMVVNIKMQQMKSQFIQYNDSNNKVLYQKCKPVADIQNAEIQNIITEMHEKMQGNGIGLAANQIGYPYQIFMIEFDSSNARYPFSFDSVPYQVFINPKITKASKQRVSFWHGCLSALGEKRGKLATYKEIEYEAYNQHGEKITGKLDSIAAIIFQHEFNHLLGSVYVDFDTEYIDNEELQAKFASGELKPYQECGEEVPLLLEKYQIGKNI,not soluble
3,GPGSMLSTIKTRPQGPYCGDYFSIVEGRVDFPVDLDTFDISLTISGDVEECKNEPYVYDEVSGNVELTNAQDPGDCLGSILRRNQLTLMVTYHPDDDKISLDFGIAVVNLSPCP,not soluble
4,MGSDKIHHHHHHMLSCHLTSPNLVPCETVDNRSSFQILFDHESIIKTYVPVMKLRFRQLQAFHAIVETGTVTGAAGLLGISQPGVSNLLSQLEDQAGMALFERLHGRLLPTPEAELLFAEVDTVMRGMSKVTQTMVDLKTRKLGQLQIASQHAMSFGFMPRLIARFASDRPELNISFQSQYSSKVQEWVWNGLFEIGVCEMPLLYDTLTVYPLYVETMLALHKDNPLARHEVLTPELLAGEPFIVMGQDHMTHRRLREAFQDAGVPLRTRVHSHLFKNLLSFVQEGMGVALLDRFMFDYDMQGDVITRPFRPTIRMDMCVITSKSRPMSQLGKEFLDLLLGELQHYSVEGRPLVPAERKRR,not soluble
5,PGSIWAKAIEHANEERKKPGADGRGDAFCYFVGSRAAGKSTLLNRFLYPTRAEVPKPSEGIEYTYARKPAAFDHEKKDLAHIWEVGGSQEFAEEIVNSDQLFLTAKQVTTAVVVIVVDLSDPAGVLPTLLYWVEQVKKKLGSTYEKFEKKGLQLPEQLRQRAKSKLYSANEDKDTVYHSGISLVIAATKYDAFKNQDPEVKKVMSRVLRYIAHAHGAFLCYLSGLHGASEGSGAEDAALLDNFTRLMNHLIFTGLEKKPVLKMQPQIDHTGPIMVPAGFDTFKSVGRPRSQGEGTVAGGLAEWRELFEKMFPGVREKEAKMSAKGAKFVIPEQYKEEEVDAVRQRKVTDLENFRKEQAAAVEAAKKKALMAKAQQAEAAAKK,not soluble
6,MRVVAIGVGGAGGRIVDALHEDDSTREASYLAGGSVLETDRGALAALDAVSEEDRHHFGHSGFGGDADSPRERIEALAEDDHVEMRRAVDSAITSDAAAIIVIAGVGGATGSVIAPKLTDALQRIYDRPVYAVSVLPATHEEVPPENPARAIAAFESAANAQLVFDNDAWVDDRNDVEDVTDGLNAELAMRLGALFSAGEAVTAESVGQRVVDASEVISTLDEGGLATIGFARQPLGTDGDDGSLLDRARELVGMDETTVDEVESIKAVETTLRQATNGRLTFDCPRDAARSGLLVVSGPPEWLHQTAVSDGQSWLADEIGSVQLRTGDNPMPGGDELTILVLLGGIRGAPRIKEIQAATDLEHHHHHH,soluble
7,MPEVKTEKPHLLDMGKPQLRMVDLNLLTVFDAVMQEQNITRAAHTLGMSQPAVSNAVARLKVMFNDELFVRYGRGIQPTARAFQLFGSVRQALQLVQNELPGSGFEPTSSERVFNLCVCSPLDNILTSQIYNRVEKIAPNIHVVFKASLNQNTEHQLRYQETEFVISYEEFRRPEFTSVPLFKDEMVLVASRKHPRISGPLLEGDVYNEQHAVVSLDRYASFSQPWYDTPDKQSSVAYQGMALISVLNVVSQTHLVAIAPRWLAEEFAESLDLQILPLPLKLNSRTCYLSWHEAAGRDKGHQWMEDLLVSVCKR,not soluble
8,MGSDKIHHHHHHMALPTQLVYPGFEKIPRFWDNEQQSQVARVDPGEYYYSCQDEFIYTRLGSCVAACIWDPLMGIGGLNHFLLPEKVLHEDWHQLTSYSCRYGNWAMEQLINGILSAGGLKSRLKAKIFGGATLGRISVLNVGQSNIAFVREYLALEGIPVMSEDLGGPWPRKVLFHPQSGRVRLKRLEMTGMAQIEREEEAYLNDVAEHAKVPEPGSIELF,not soluble
9,MKFGWIKTTGNDLEERMESVKDALESSIPGIIAEKEEISSVRELGNIKIVSDNLDADVVLINKGEDLEILKSAKLSGKETGVYVVINTKEDEVYATDVSKLDFVDYVVLEGSDWTIIPLENIIADLFSEEIKIVSVVTNVKDAEAAYEILEKGVDGVVLIPKDINEVKDFSKLIERMNSESVKLDYATVTKIEPVGSGDRVCIDTCSMMEMGEGMLIGSYSRGMFLVHSETVENPYVATRPFRVNAGPVHAYILCPENKTKYLSDLKAGDKVLVVNKNGETREAIIGRVKIEKRPLFLVEAEYNGENLRTILQNAETIRLVGEDGKPVSVVDLKVGTKVLIKPDENARHFGMAIKETIIEKLEHHHHHH,soluble
10,RKLHAEELLRLAMAHLRNQGKPVRIVDIAAGHGRYILESLRGVEPLPESILLRDYSDINVRDGSLLIEQKDLEDIARFVKGDAFDRNDLATLDPKPTLAVVSGLYELFSSNQMVGDSLAGLAAAVEPGGYLVYTGQPWHPQLELIARALTSHREGQAWVMRRRSQSEMDQLVEAAGFRKITQRVDEWGIFTVSLAQRIQ,not soluble
11,MAAAVFHMEILQLNDLSSRLNPLATKNVVLHVCLGVRYFPNSACKSYKDAQALCKDGDGMSLTGPAQSMEKAFFKESVPKVDKCVIFLDGLALNHDEPYNFEFEDETHDGTKNYRFNSEDPNSQTAPNYIVFEYHVSGAHVFDRS,not soluble
12,MSLSFDFSPDFNPLAARMRPASVEEYIGQSHLLGEGKPLRQALLAGKVHSMLLWGPPGTGKTTLAELVARYANAHVERISAVTSGVKEIRAAIEQAKNVAQSRGQRTLLFVDEVHRFNKSQQDAFLPFIEDGTVIFIGATTENPSFEVNNALLSRCRVYLIKRLEDDAIGQILAQANSDEARGLGKRGLLLKAELKSAIARLCDGDARKALNLLELMSDLLPDGGEYNLELLSEVAGHQAAGYDKNGDQYYDLISAVHKSIRGSAPDAALYWFCRILEGGGDPLYVARRLLAIASEDIGNADPNAMTVALNAWDCFHRVGPAEGERAIAQAVIYLASAPKSNAVYTAFKAARVLARETGNAPVPNHLRNAPTKLMSELGVGEGYRYAHDEDGAFAAGENYFPEVLQHSRIYQPTARGFEKRIRDKLAHLDALNQQSEGHHHHHH,soluble
13,MKDSALTLKRVRIGKFSESMVEERPTLNLFEKVEFNPVPTALVDQLPTEPLVEATLLEKEAITFVDTYATSEAHDQIATFVLEQSMETEVVEKEAIETAIVAPAPDLVEEKAVLVEEVLVEPTATEAVTTEENQVSTTSVTKIKTKRSNTKKVTSETLVASKSVKTKKLITPNRVSSGNVNITLWQVDKKSTNLTKTKTDLFGKKHQFKGPQLISYKK,soluble
14,MIAIIDYGMGNIRSVEQALKYIGAAYIVTSDKEEIFRSDGVILPGVGAFPKAMDILEEKDLVRVLQEIGRSRKPLLGICLGMQLLFEKSEELQDCNGLSLLPGVIRKLKVPYKIPHMGWNELKKEGEIALWNGVEDGSFVYYVHSYYADCPNEIVYGISDYGVKVPGFVAKGNIYGAQFHPEKSGDIGMQMLKNFKGVVETWKSSQLSI,soluble
15,SKILVFGHQNPDSDAIGSSMAYAYLKRQLGVDAQAVALGNPNEETAFVLDYFGIQAPPVVKSAQAEGAKQVILTDHNEFQQSIADIREVEVVEVVDHHRVANFETANPLYMRLEPVGSASSIVYRLYKENGVAIPKEIAGVMLSGLISDTLLLKSPTTHASDPAVAEDLAKIAGVDLQEYGLAMLKAGTNLASKTAAQLVDIDAKTFELNGSQVRVAQVNTVDINEVLERQNEIEEAIKASQAANGYSDFVLMITDILNSNSEILALGNNTDKVEAAFNFTLKNNHAFLAGAVSRKKQVVPQLTESFNG,soluble
16,MAHHHHHHMKDGDWERRNRLKVYEGIYHVFIRDFKRGSELLLDSISTFASSELMDFNEFILITVVASLPVLSRSELKQQILDSPEVRSANIKDVFHLITVIYNCRYKEVFSALDTVCQHLRGIVYLSQHVNYFFREVRVLVFTQFLDSYSSVTLNSMSAAFGIPPPVLDSMLGTLISNERIACKMDRVSDSITTYRGDTTNFDYHRIVKNGDLLLNRIQKLSRLAEM,not soluble
17,MESKLNLDFNLVEKARAKAKAIAIDTQEFIEKHTTVTVERAVCRLLGIDGVDTDEVPLPNIVVDHIKENNGLNLGAAMYIANAVLNTGKTPQEIAQAISAGELDLTKLPMKDLFEVKTKALSMAKETVEKIKNNRSIRESRFEEYGDKSGPLLYVIVATGNIYEDITQAVAAAKQGADVIAVIRTTGQSLLDYVPYGATTEGFGGTYATQENFRLMREALDKVGAEVGKYIRLCNYCSGLCMPEIAAMGAIERLDVMLNDALYGILFRDINMQRTMIDQNFSRIINGFAGVIINTGEDNYLTTADAFEEAHTVLASQFINEQFALLAGLPEEQMGLGHAFEMDPELKNGFLYELSQAQMAREIFPKAPLKYMPPTKFMTGNIFKGHIQDALFNMVTIMTNQRIHLLGMLTEALHTPFMSDRALSIENAQYIFNNMESISEEIQFKEDGLIQKRAGFVLEKANELLEEIEQLGLFDTLEKGIFGGVKRPKDGGKGLNGVVSKDENYYNPFVELMLNK,soluble
18,MFGYRSNVPKVRLTTDRLVVRLVHDRDAWRLADYYAENRHFLKPWEPVRDESHCYPSGWQARLGMINEFHKQGSAFYFGLFDPDEKEIIGVANFSNVVRGSFHACYLGYSIGQKWQGKGLMFEALTAAIRYMQRTQHIHRIMANYMPHNKRSGDLLARLGFEKEGYAKDYLLIDGQWRDHVLTALTTPDWTPGR,not soluble
19,MKVTLPEFERAGVMVVGDVMLDRYWYGPTSRISPEAPVPVVKVNTIEERPGGAANVAMNIASLGANARLVGLTGIDDAARALSKSLADVNVKCDFVSVPTHPTITKLRVLSRNQQLIRLDFEEGFEGVDPQPLHERINQALSSIGALVLSDYAKGALASVQQMIQLARKAGVPVLIDPKGTDFERYRGATLLTPNLSEFEAVVGKCKTEEEIVERGMKLIADYELSALLVTRSEQGMSLLQPGKAPLHMPTQAQEVYDVTGAGDTVIGVLAATLAAGNSLEEACFFANAAAGVVVGKLGTSTVSPIELENAVRGRADTGFGVMTEEELKLAVAAARKRGEKVVMTNGVFDILHAGHVSYLANARKLGDRLIVAVNSDASTKRLKGDSRPVNPLEQRMIVLGALEAVDWVVSFEEDTPQRLIAGILPDLLVKGGDYKPEEIAGSKEVWANGGEVLVLNFEDGCSTTNIIKKIQQDKKG,soluble
20,MRTMVFPGSAPAYPIRYPSTMQETDSGAGPRTLRRGLMVLAALRDQGPRGLSVTDIARQTGIQRPTIYRLLAALLDAGLVVPLQGTKKYRTQLAADADLAAPDPRVRQMLPVLRRLADRTGDAVFLVVRDGDDSVSLHREIGSYPVQILATYAGKRQPLGVGSGGMALLAALPDEIAHAIVQRNSGRLDEYGGMTPQEMHRLIENTRARGYSVVGNHAVRGALGVGCALLDAQGAPVLAVSVTAIIDRMPAQRQREIAGWIGAELARLAPKA,not soluble
21,MPSSGRGGAFFPDPCVFHGAYLPSGSSRWAKESTMFFIAKYKRNTEWLKMIFSNALHGVQEGSGFEWKAFVTLMPTELRVVSLSQELLRLWLVISYTVRDVRTYFFP,not soluble
